According to patent publication US11419921B2, “Methods of treating neurological disorders” (EnClear Therapies, Inc., priority 2018, dated 2022):

Experiments:
Type in all cases: biochemical
[1] = system: (GR)10; experiment: Cleavage of (GR)10 by enzymes in solution (PBS with CaCl2 and MgCl2), LC/MS of GR repeats; details: in solution, activated with 2.5 mM DTT
Experimental: • (GR)10 dipeptide (also (GR)8, (GR)6, (GR)4, (GR)2) were synthetized by solid-phase synthesis by CanPeptide; All peptides are uncapped and supplied lyophilized with TFA as counter ions. Purity was always above 95%. • Buffer: PBS buffer containing CaCl2 and MgCl2. • Stock solution of enzyme (e.g., 10 mg/mL) (prepared per manufacturer instructions) in PBS. Activators added as necessary. • Working solution of protein of the desired concentration (e.g., 100 μg/mL) prepared immediately before use by diluting the stock solution (e.g., 5 μL of 10 mg/mL stock solution) in PBS buffer (e.g., in 495 μL of PBS). Exemplary Procedure Using 50 μM Concentrations of (GR)10
25 μL of a 100 μM solution of (GR)10 was added to each well of a 96-well plate. 25 μL of a solution of enzyme (two times the desired final enzyme concentration) was added, and the plates were incubated at room temperature. At the specified time points (5 minutes, 10 minutes, 30 minutes, 60 minutes, and 180 minutes) 2.5 μL of a 10% TFA solution were added to stop the reaction. For the time 0 min well, the TFA was added to the well before addition of the enzyme. After last time point, all samples were further diluted with 150 μL of dilution solution. The quenched reaction mixtures were analyzed by LC/MS to determine the concentration of GR repeats of different lengths.
The chromatography and mass spectrometry conditions utilized are shown in Table 2 and Table 3, respectively.

[2] = system: (GR)10; experiment: (GR)10 digestion with immobilized proteases in human cerebrospinal fluid (CSF); details: immobilized enzyme
Experimental: (§1) Protease solutions were prepared at 2 mg/mL in sterile PBS with calcium, magnesium and 200 μL ([…]) were applied to 100 μL of pre-washed NHS-activated agarose resin in 0.8 mL centrifuge columns. Reactions were left 1.5 hour at room temperature with end-to-end mixing, after which resins were washed with 12 resin volumes of PBS. Unreacted sites were blocked with 500 μL of 1M ethanolamine for 15 minutes at room temperature and resins were further washed with 24 resin volumes. Resins were stored at 4 degrees in 500 μL of PBS containing 0.05% sodium azide as preservative.
200 μM of (GR)10 were diluted in human cerebrospinal fluid (CSF) and 400 μL were applied to each immobilized proteases. The reaction was incubated 5 minutes at room temperature with end-to-end mixing. Columns were spun down 1 minute at 1,000 Xg to recover digested GR dipeptides. Columns were washed with 12 resin volumes of PBS. The procedure was repeated with 60 minutes digestion time. 100 μL of each samples were transferred to a clean tube, flash-frozen and subsequently used for LC/MS quantification of GR repeats of different lengths. The remaining 300 μL of each samples were flash-frozen and used to assess neuron toxicity.
(GR)10 was digested with exemplary immobilized enzymes as described above in the subsection titled “(GR)10 digestion with immobilized proteases in CSF” of Example 3. Clostripain experiments were conducted with and without DTT activation (no DTT during digestion). The results obtained after 5 and 60 minutes of reaction time are presented in Table 25 and shown in FIG. 5 (commercial and in-house immobilized trypsin), FIG. 6 (immobilized elastase, FIG. 7A (immobilized clostripain without DTT) and FIG. 7 (immobilized clostripain with 2.5 mM DTT).

[3] = system: (GR)10; experiment: (GR)10 digestion with immobilized proteases (NHS-activated agarose resin) in PBS; details: for (GR)1 (normalized to GR concentration) / (GR)2 (normalized to GR concentration) / (GR)3 (normalized to GR concentration) / (GR)4 (normalized to GR concentration) / (GR)5 (normalized to GR concentration) / (GR)6 (normalized to GR concentration) / (GR)8 (normalized to GR concentration) / (GR)10 (normalized to GR concentration): immobilized; for (GR)1 / (GR)2 / (GR)3 / (GR)4 / (GR)5 / (GR)6 / (GR)8 / (GR)10: normalized
Experimental: as §1
110 μL of 50 μM (GR)10 dipeptide repeats prepared in PBS were added to each immobilized protease and incubated 5 minutes at room temperature with end-to-end mixing. Columns were spun down 1 minute at 1,000 Xg to recover digested GR dipeptides. Columns were washed with 110 μL of PBS to increase (GR)10 recovery. This procedure was repeated with 60 minutes digestion time. 100 μL of each samples were transferred to a new tube and 5 μL of 10% TFA followed by 300 μL of Dilution Solution were added. The reaction mixtures were analyzed by LC/MS to determine the concentration of GR repeats of different lengths.

[4] = 2.5 mM DTT, resin wash from 5 min reaction
[5] = 2.5 mM DTT, resin wash from 60 min reaction
[6] = activated with 2.5 mM DTT, 5 min reaction
[7] = activated with 2.5 mM DTT, 60 min reaction
[8] = resin wash from 60 min reaction

B1: Clostripain + DTT (protein)
chain: NKNQKVTIMYYCDADNNLEGSLLNDIEEMKTGYKDSPNLNLIALVDRSPRYSSDEKVLGEDFSDTRLYKIEHNKANRLDGKNEFPEISTTSKYEANMGDPEVLKKFIDYCKSNYEADKYVLIMANHGGGAREKSNPRLNRAICWDDSNLDKNGEADCLYMGEISDHLTEKQSVDLLAFDACLMGTAEVAYQYRPGNGGFSADTLVASSPVVWGPGFKYDKIFDRIKAGGGTNNEDDLTLGGKEQNFDPATITNEQLGALFVEEQRDSTHANGRYDQHLSFYDLKKAESVKRAIDNLAVNLSNENKKSEIEKLRGSGIHTDLMHYFDEYSEGEWVEYPYFDVYDLCEKINKSENFSSKTKDLASNAMNKLNEMIVYSFGDPSNNFKEGKNGLSIFLPNGDKKYSTYYTSTKIPHWTMQSWYNSIDTVKYGLNPYGKLSWCKDGQDPEINKVGNWFELLDSWFDKTNDVTGGVNHYQW
90.8 µM: (GR)4 (normalized uM) ([2]; 5 min reaction)
335.6 µM: (GR)1 (normalized to GR concentration) [3, 7]
85.5 µM: (GR)3 (normalized uM) ([2]; 60 min reaction)
21.2 µM: (GR)4 (normalized uM) ([2]; 60 min reaction)
299.3 µM: (GR)1 (normalized to GR concentration) [3, 6]
58 µM: (GR)10 (normalized uM) ([2]; 5 min reaction)
27.2 µM: (GR)4 (normalized to GR concentration) ([1]; 5 min reaction)
86.4 µM: (GR)6 (normalized uM) ([2]; 5 min reaction)
40.5 µM: (GR)3 (normalized to GR concentration) ([1]; 5 min reaction)
0.0 µM: (GR)8 (normalized to GR concentration) ([1]; 5 min reaction) | (GR)2 (normalized to GR concentration) ([1]; 60 min reaction) | (GR)3 (normalized to GR concentration) ([1]; 60 min reaction) | (GR)4 (normalized to GR concentration) ([1]; 60 min reaction) | (GR)5 (normalized to GR concentration) ([1]; 60 min reaction) | (GR)6 (normalized to GR concentration) ([1]; 60 min reaction) | (GR)8 (normalized to GR concentration) ([1]; 60 min reaction) | (GR)10 (normalized to GR concentration) ([1]; 60 min reaction) | (GR)2 (normalized to GR concentration) [3, 4] | (GR)3 (normalized to GR concentration) [3, 4] | (GR)4 (normalized to GR concentration) [3, 4] | (GR)5 (normalized to GR concentration) [3, 4] | (GR)6 (normalized to GR concentration) [3, 4] | (GR)8 (normalized to GR concentration) [3, 4] | (GR)10 (normalized to GR concentration) [3, 4] | (GR)2 (normalized to GR concentration) [3, 5] | (GR)3 (normalized to GR concentration) [3, 5] | (GR)4 (normalized to GR concentration) [3, 5] | (GR)5 (normalized to GR concentration) [3, 5] | (GR)6 (normalized to GR concentration) [3, 5] | (GR)8 (normalized to GR concentration) [3, 5] | (GR)10 (normalized to GR concentration) [3, 5] | (GR)2 (normalized to GR concentration) [3, 6] | (GR)3 (normalized to GR concentration) [3, 6] | (GR)4 (normalized to GR concentration) [3, 6] | (GR)5 (normalized to GR concentration) [3, 6] | (GR)6 (normalized to GR concentration) [3, 6] | (GR)8 (normalized to GR concentration) [3, 6] | (GR)10 (normalized to GR concentration) [3, 6] | (GR)2 (normalized to GR concentration) [3, 7] | (GR)3 (normalized to GR concentration) [3, 7] | (GR)4 (normalized to GR concentration) [3, 7] | (GR)5 (normalized to GR concentration) [3, 7] | (GR)6 (normalized to GR concentration) [3, 7] | (GR)8 (normalized to GR concentration) [3, 7] | (GR)10 (normalized to GR concentration) [3, 7]
70.5 µM: (GR)3 (normalized uM) ([2]; 5 min reaction)
0 µM: (GR)6 (normalized uM) ([2]; 60 min reaction) | (GR)8 (normalized uM) ([2]; 60 min reaction) | (GR)10 (normalized uM) ([2]; 60 min reaction)
79.8 µM: (GR)1 (normalized uM) ([2]; 5 min reaction)
3 µM: (GR)5 (normalized uM) ([2]; 60 min reaction)
458.3 µM: (GR)1 (normalized uM) ([2]; 60 min reaction)
387.0 µM: (GR)1 (normalized to GR concentration) ([1]; 60 min reaction)
7.3 µM: (GR)6 (normalized to GR concentration) ([1]; 5 min reaction)
64.8 µM: (GR)8 (normalized uM) ([2]; 5 min reaction)
90.5 µM: (GR)5 (normalized uM) ([2]; 5 min reaction)
113.6 µM: (GR)2 (normalized to GR concentration) ([1]; 5 min reaction)
12.1 µM: (GR)5 (normalized to GR concentration) ([1]; 5 min reaction)
99.1 µM: (GR)1 (normalized to GR concentration) [3, 4]
5.7 µM: (GR)10 (normalized to GR concentration) ([1]; 5 min reaction)
86.8 µM: (GR)1 (normalized to GR concentration) ([1]; 5 min reaction)
125.6 µM: (GR)1 (normalized to GR concentration) [3, 5]
409.2 µM: (GR)2 (normalized uM) ([2]; 60 min reaction)
83.2 µM: (GR)2 (normalized uM) ([2]; 5 min reaction)

B2: Commercial Trypsin: commercial immobilized trypsin, presumably the ThermoFisher immobilized TPCK-trypsin of Example 2 (protein, UniProt P00760 24-246, looked up)
Serine protease 1: IVGGYTCGANTVPYQVSLNSGYHFCGGSLINSQWVVSAAHCYKSGIQVRLGEDNINVVEGNEQFISASKSIVHPSYNSNTLNNDIMLIKLKSAASLNSRVASISLPTSCASAGTQCLISGWGNTKSSGTSYPDVLKCLKAPILSDSSCKSAYPGQITSNMFCAGYLEGGKDSCQGDSGGPVVCSGKLQGIVSWGSGCAQKNKPGVYTKVCNYVSWIKQTIASN
modifications: TPCK-treated, immobilized on agarose resin
0.0 µM: (GR)2 (normalized uM) ([2]; 5 min reaction) | (GR)3 (normalized uM) ([2]; 5 min reaction) | (GR)4 (normalized uM) ([2]; 5 min reaction) | (GR)5 (normalized uM) ([2]; 5 min reaction) | (GR)6 (normalized uM) ([2]; 5 min reaction) | (GR)8 (normalized uM) ([2]; 5 min reaction) | (GR)10 (normalized uM) ([2]; 5 min reaction) | (GR)2 (normalized uM) ([2]; 60 min reaction) | (GR)3 (normalized uM) ([2]; 60 min reaction) | (GR)4 (normalized uM) ([2]; 60 min reaction) | (GR)5 (normalized uM) ([2]; 60 min reaction) | (GR)6 (normalized uM) ([2]; 60 min reaction) | (GR)8 (normalized uM) ([2]; 60 min reaction) | (GR)10 (normalized uM) ([2]; 60 min reaction) | (GR)2 ([3]; Immobilized - 5 min reaction) | (GR)3 ([3]; Immobilized - 5 min reaction) | (GR)4 ([3]; Immobilized - 5 min reaction) | (GR)5 ([3]; Immobilized - 5 min reaction) | (GR)6 ([3]; Immobilized - 5 min reaction) | (GR)8 ([3]; Immobilized - 5 min reaction) | (GR)10 ([3]; Immobilized - 5 min reaction) | (GR)2 ([3]; immobilized - 60 min reaction) | (GR)3 ([3]; immobilized - 60 min reaction) | (GR)4 ([3]; immobilized - 60 min reaction) | (GR)5 ([3]; immobilized - 60 min reaction) | (GR)6 ([3]; immobilized - 60 min reaction) | (GR)8 ([3]; immobilized - 60 min reaction) | (GR)10 ([3]; immobilized - 60 min reaction) | (GR)2 ([3]; resin wash from 5 min reaction) | (GR)3 ([3]; resin wash from 5 min reaction) | (GR)4 ([3]; resin wash from 5 min reaction) | (GR)5 ([3]; resin wash from 5 min reaction) | (GR)6 ([3]; resin wash from 5 min reaction) | (GR)8 ([3]; resin wash from 5 min reaction) | (GR)10 ([3]; resin wash from 5 min reaction) | (GR)2 [3, 8] | (GR)3 [3, 8] | (GR)4 [3, 8] | (GR)5 [3, 8] | (GR)6 [3, 8] | (GR)8 [3, 8] | (GR)10 [3, 8]
308.6 µM: (GR)1 ([3]; immobilized - 60 min reaction)
1197.4 µM: (GR)1 (normalized uM) ([2]; 60 min reaction)
145.7 µM: (GR)1 [3, 8]
131.9 µM: (GR)1 ([3]; resin wash from 5 min reaction)
301.2 µM: (GR)1 ([3]; Immobilized - 5 min reaction)
1117.3 µM: (GR)1 (normalized uM) ([2]; 5 min reaction)
